The values below come from patent US20180280423A1 (NATIONAL YANG MING UNIVERSITY, published 2018).

The assay addresses T1, epidermal growth factor receptor (EGFR) (human, UniProt P00533 25-1210).
T1 construct: whole, on cells; Endogenous EGFR in human HNSCC cells, or wild-type pHA-EGFR where transfected; also called ErbB1; total EGFR
Put plainly: interaction of transfected LTβ with EGFR (method not named; immunoprecipitation in Methods).

Method: For immunoprecipitation, the lysates were mixed with an equal amount of Co-IP buffer. The primary antibody or IgG was added to the lysates, and the reactions were incubated and then blocked with protein A beads overnight. The beads were collected and washed gently prior to immunoblotting. ImageJ software was used for densitometric measurements of the western blots.

B1: Ectopic LTβ (ligand)
chain: MGALGLEGRGGRLQGRGSLLLAVAGATSLVTLLLAVPITVLAVLALVPQDQGGLVTETADPGAQAQQGLGFQKLPEEEPETDLSPGLPAAHLIGAPLKGQGLGWETTKEQAFLTSGTQFSDAEGLALPQDGLYYLYCLVGYRGRAPPGGGDPQGRSVTLRSSLYRAGGAYGPGTPELLLEGAETVTPVLDPARRQGYGPLWYTSVGFGGLVQLRRGERVYVNISHPDMVDFARGKTFFGAVMVG
notes: also called pFLAG-LTB product; transfected LTβ; not shown: FLAG tag from the pFLAG-CMV2 vector
Regarding B1, the binding result was “binds”.
